Common to all, as to test: in situ proximity ligation assay
Common to all, as to conditions: reference: wild-type R-region

For assay [1], the target named is CFTR (split-CFTR: front half, R-region and back half as separate polypeptides) front half, 1-634 (UniProt P13569).
For assay [2] the target is unchanged. The source holds these as a separate data set.
In assay [3] the target is CFTR (split-CFTR: front half, R-region and back half as separate polypeptides) back half, 837-1480 (UniProt P13569).

“Also recorded” adds a separate entry of the source.

CFTR (split-CFTR: front half, R-region and back half as separate polypeptides) R-region, 635-836 (from UniProt P13569) S686D, sequence (P13569 1-634, stated change not applied): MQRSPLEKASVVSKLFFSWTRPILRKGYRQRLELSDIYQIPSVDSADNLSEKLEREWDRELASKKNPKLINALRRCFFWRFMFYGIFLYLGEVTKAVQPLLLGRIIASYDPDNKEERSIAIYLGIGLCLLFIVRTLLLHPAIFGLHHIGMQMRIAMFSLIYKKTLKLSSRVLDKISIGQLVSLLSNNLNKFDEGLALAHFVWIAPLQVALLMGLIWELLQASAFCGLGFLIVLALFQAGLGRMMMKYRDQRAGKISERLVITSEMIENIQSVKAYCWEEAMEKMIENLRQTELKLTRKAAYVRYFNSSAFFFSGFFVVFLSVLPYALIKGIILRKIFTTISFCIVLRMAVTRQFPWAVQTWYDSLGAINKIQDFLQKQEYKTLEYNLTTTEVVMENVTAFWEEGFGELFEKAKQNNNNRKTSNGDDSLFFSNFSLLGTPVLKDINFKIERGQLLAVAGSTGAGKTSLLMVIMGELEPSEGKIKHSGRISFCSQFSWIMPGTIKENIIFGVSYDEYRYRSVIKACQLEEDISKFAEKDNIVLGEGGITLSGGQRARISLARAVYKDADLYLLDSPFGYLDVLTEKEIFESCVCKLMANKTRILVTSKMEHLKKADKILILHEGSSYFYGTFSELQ

“CFTR (split-CFTR: front half, R-region and back half as separate polypeptides) R-region, 635-836 (from UniProt P13569) S686D”: the “other: PLA CTCF” value in assay [1] (sites S686) is on record as “stronger; reference 3.29 ± 0.24”; in assay [2] (sites S686), “same; reference 5.67 ± 0.55; also recorded: weaker; reference 7.91 ± 0.21”.
As for “CFTR (split-CFTR: front half, R-region and back half as separate polypeptides) R-region, 635-836 (from UniProt P13569) S686A”, the figures for the “other: PLA CTCF” value in assay [1] (sites S686), in assay [3] (sites S686) and in assay [2] (sites S686) were “weaker; reference 3.29 ± 0.24”, “weaker; reference 3.41 ± 0.20” and “stronger; reference 3.90 ± 0.18; also recorded: same; reference 5.67 ± 0.55; also recorded: weaker; reference 7.91 ± 0.21”, respectively.
As to “CFTR (split-CFTR: front half, R-region and back half as separate polypeptides) R-region, 635-836 (from UniProt P13569) S641A/T682A”, the figures for the “other: PLA CTCF” value in assay [1] (sites S641,T682), in assay [3] (sites S641,T682) and in assay [2] (sites S641,T682) were “stronger; reference 3.29 ± 0.24”, “stronger; reference 3.41 ± 0.20” and “weaker; reference 3.90 ± 0.18; also recorded: stronger; reference 7.91 ± 0.21”, respectively.

(Values after article PMC6996395.)
